In the NTF2 design screens of Basanta et al. (2020):

Assay: protease stability score; higher = more stable; yeast display proteolysis, trypsin and chymotrypsin;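 note: relative to predicted unfolded state with 0 unfolded-like and 1 meaning tenfold more protease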

Row | Sequence | protease stability score
1 | SERSEFITRLTREMIHAFETGDWKWLSELLDPNTRYHFRQGDKEFDMHGREEMVKMLEKILRHFGIDHFHIEDVKLYGDKVIVHHRSLVNGKEVHVRIEWDIVDGRIKSFNLDYHEN | 1.26
2 | SESDEMAVEMLLRWVENLITGDEHTSQELLDPHVRIIFYIGDKEVHYHGWENAVEFWEEVVRRYDYFHIKFEEITVQGEKVRSKTRLTVIINGQEERYDTKLNAIVVNGRFKSVTIQYD | 0.876
3 | SESEDLLETLERVIRRVDETGDERDFHEMLDPDARIIIGDKIHIGREASELWFKRVDHIHHRHIHQIRVIGNKMHIDIEVDGKIGDWRFRTRVELVLVKVNGKWMVHHININ | 1.17
4 | SESEDQAHKFSEEWIKAFETGDEEHMNRLVDPNVRIEVGDKEHHGRHVYLEILKRLGANHVRIHIEDIEVQGEKLIIHGKIIITVGDKVIEIRTIIIVTKIDGRWRIKDIIFH | 1.39
5 | SESEEASEWVIKIWRDTMETGDEKTLNHLLDPSVRLVVNGQEIHGRESMIKEFRRFKNVKLHDIKHHDIDMIGDKIIIHGTIHGEINGREVTVEQEIISIKVNGKWLTRSLILH | 1.64
6 | SESEEASREAIHLMIESWRTGNEHILDRLMDPNVRNRIDGRDLIGRENFLEVLRHLEEKMGIDHIEFDTERVRWVGDKAESDTRFETVYNGKNVEISTKVHWEKVNGRWHIREIRFH | 1.17
7 | SESEEDAHKASREITHMLYTGNEELWSTLADPNTRIVINGVEVHGREQVVRVIRELLRRFGVDKVHSELRTVDVQGEKVEIHSHYVQGDKSYDIILVMNKIDGRWHLQRQSIR | 1.18
8 | SESEEDFRWFMHVLLKTFLTGDEDEFDSLIDPNVRLIVNGKDTHGWEVAVKFVRRFDHLDLYVRESEIQGDKVESDTELIVNFNGVSIKHKTRVIAEKVNGRWILREMRIG | 1.44
9 | SESEEEARKVIERLFRAERTGDEDDVKHLLDPNVKIDWNGRKYHGRDDWAHYISHLGIDHSELIIKHLEYQGDKLRLHGILRYVIGDKTIEEEVFEHMQKINGRWRIREIHIK | 1.64
10 | SESEEEARRKSEVFLRHLRTGDFREFIKLADPHVLNIFPGVNHVGREHWRRLELHLRRREFRVHDERLDIQGDKVRINIDLETDVEFDGKELKFRTLILIEAEKVDGRWRVTEVSEEPR | 0.524
11 | SESEEFAREFLEHMEKFLRTGNWEEMKRNADPNVLLRIGDKHLHGREEYEEWLRKFLEHMRIREVEVKDLKIVGDKIFLIIRIRIHFDGREDQLDTILVMQKVDGRWIVTEIRVR | 1.21
12 | SESEEFLEKAYRLIEESLRTGDFREMLSNIDPNARFRYGNFDFHGRENLEFMLKELSKRIDHFHNSHIRRVNVINGRMHLHTSMHVEYDGKKEEVETEWVLLKVDGQWLIKEVTVI | 2.51
13 | SESEEHSKKLFDTWVHSELTGDERSLLHLMDPHVKFIIDGREIHGREKASEFLVKLREHLGAEIHDYRVRDMKIQGEKVIIHSELDVQVDGVRHHERLVLIMHKIDGQWSVESVKRV | 1.08
14 | SESEEIAHNFTELLIKTLNTGDEKLYRELADPNARIEINGVELVGWKKANELLQRIDHERVRRVKLKDIEVQGDKVIVRTHEEREINIGDKRLHIRTDVEIIWVKINGKWILHEISVH | 1.23
15 | SESEELAEHWFELLIRSILTGDEDTLRRLMDPDVKIQVGDKEWHGREEYIRMVLEFSHLYKNVKLHFRIRSVVDIDGRLTVDTEIINSFDGREYRIDTRLHVDKYDGVWVAKHLIYS | 1.39
16 | SESEHKAREMIRLIEHFLITGDEESWHRLFDPHTRVVIDGREIHGMEIYNHWLKELRIRDSHIHIRTIEDINGRINIHGELQLHGIINGQTHDFRSHIDLHVLKFNGRWHMETYIIS | 1.57
17 | SESEHLLHTAHELVLRLQETGDWDEIIELADPNVRMEIGDKEIHGREEFERWSREMRFEHVEIHDMRVQGNKADLDGRMRGHFNGRTIDTRVKIIFHKVDGRWLITSYHVK | 1.18
18 | SESEKASEIATKELEEVEKTGDEKTIEDYMDPNTRLHINGVDLHGMENFLEFWHRLLRKLGFESTSFHLKSSRIQGNKIKMHSIIHVKQGEKDISFDVEYIALKFNGRWIEESMSSK | 1.32
19 | SESERATRHALRLLWDILLTGDEETWEKMADPNVRVEIGNFHDHGMDSMRLLFHLLLERIDHIHDFTVRHSHSQGDKVENHTEIEVRQGDKSLNITTVFVYVKINGRWINKRVIFK | 0.999
20 | SESERYIHEAERHLIEKLRTGDWDDMSRLLDPHVRLDVNGQEFHGWHRVSDTMRRFGFKHVDVEDTHINEDELRSHLRSRVDGVHFELHIQMRKVNGRWFFKNLEFK | 1.15
21 | SESHDLLEEFVRLILHLWRTGDEEILHNMADPNTQMHIGDKTYHGREEAVDVIHKLLKHLRFKHLHIDHIDIQGDWVRITGHLHVKVDGREIQREVSSVVIKINGRWILRSERID | 2.27
22 | SESHHLAKHVVHLFMHAVSTGDEKLLRELLDPDVRVDINGVELIGMEDFQKWLHEWREHMHDSKVHRVRDYNGVLESDVKVRRVLIVDGVRLEEETHSEVIIVKINGRWHVKHVRYR | 1.26
23 | SESHNFFKWALEVLLLSLRTGNERHLETLADPNMRVYINGREHHGRQMYFEMVFRWIEKFPNIQIHIHIEDTRVQGDKVHVDGEYQERFNGKTFVEKVHIIMLKIDGKWVLERDEII | 1.6
24 | SESKEFIKRFTEEILKNTLTGNEDRYEELLDPNVRVEVGDKEHHGREEALEFLHRIWRELRTKHIVLRDMRIIGDKAEVEYEVRVEVNGVELHMTRRMEIVVIDGRLKAVKLEHT | 1.24
25 | SESKHDLIRIFEERSEAHETGDEDFIMELIDPHVKIIIGDKTFHGREKYLEWEKLFGVKHVHFHVKDVRFQGDKVHVNGILRIRVGDKHEEFQVHILITKVNGVWIIKEIEIN | 1.35

Row | Sequence | protease stability score
26 | SESLEFATKLLEILTHLMYTGDEEDLRHLLDPHVRILFNGKYFHGMEFLMEIYKHWRIQEVRVRFRDVRDVDGRIFVRGEEENVGTINGKRDIVWSHITLIAEKVDGRWVVKEIRIE | 1.88
27 | SESQEVLEMAIRIWRHTVKTGDEREIAELMDPHVRIEVGDKEFIGRELVSHWFLRFSEHMRIHDIEIKRYHVVGNKAHIHTVVDGEVDGKRDYTEVELIVEKVDGRWLIRSMKIR | 2.49
28 | SETDEDFKRLVEEFIRLFLTGDEDQLLELHDPNTRVEVGDFEEHGMEKWSRFLEEERRRVKGLKLVREDEKIEVQGNKLHLILHGAIEFDGVRLFTRIIVHAEKVNGKWVIRRFKMETR | 1.54
29 | SETDELLRQLAEFHRETLETGDFHTLWHLLDPHVRLDYNGQKMHGREHFARFWLELLTELRIHFRVRDIRTQGNKAHNRGEIIIHYDGRLRIIDSEIEIIVVNGKVTEVRHTIN | 0.837
30 | SETDESSRVASELMREWLETGDEEVISELADPHVRFDWNGRRDIGRHSYLEFMHMLRRHMGIKHIEFKRIEVHVINGVVHVNITGILHFNGVQLTTHIHIHAEKIDGRWILKQSHYDTE | 0.751
31 | SETEEAATLMLRMLIETIYTGDEETYKRLADPHVKVRIGDKTFHGREQVIERLHRTWKEMRIEDVEVQDMRYQGDFIRNRTHILLHQGEYRHRFDVEIIVFKFNGQWILTSQHFH | 1.11
32 | SETEEAVKKVTHDLWHALLTGDEEIIRDLFDPHTKILINGVELHGMDEHKDFLDRFDHIHVHDRRIETVIVQGDKAISIGHIHVRFEYGDKHVSVHSEQRLIITKIDGKWIIRFVEIG | 1.22
33 | SETEEEAERFEKILLHYRKTGNEDDLLNFIDPHVRIHQGDKEIHGRELYLELMRRWKEIAGHDFFFMNIHDVEIQGEKAIIDGRLFVNGVHHKIKVIFKKINGRWIVESEHIH | 0.889
34 | SETEEEARKMIELLVEAWLTGDEHTLERMLDPHVKIIIDGRELHGWKVLAERIKHLRYEHFEFELHSVETQGDKIIIRGIVRSDLRVGDKEEHTHLEVIIIITKVNGRWVVHSIEIR | 1.68
35 | SETEEITERWLRLALEALRTGDFEFISRLADPHVRSEYNGVEFIGREEMVRFEEERLERLGATPSDLITRDVEFQGNKVIIHQEMEMRVGDKRHTNETTIFSHKFDGRWILHSIKFH | 0.984
36 | SETEELASKVTKEFKRVLETGDWRVSLNLLDPDTLLEINGVEFHGREAWEEFNERFKNVKIHFIERDMKIVGNKIKIEGHLEDRWNGQSTHREMHLVFDKVNGRWFNRSVHFG | 0.57
37 | SETEENAEHVVREWFEMITTGDEDEVLRLMDPHVRVRIGDKIIHGREIFLAHMRHWRIKNKHFEIEHMHFYGDKAVLDGRLVGEETVDGKHRTYDRRVDFNLVKIDGKWHIREFHVD | 1.52
38 | SETEESLRRYIEDWLTALSTGNEDTLKRLMDPSTRVTVDGVEYHGRSALEEFIKRVDVIHRSDRHDFKIQGEKVHVDVRMDVHIDGQKHTLHSHWLILKINGRWVIHELIFE | 1.99
39 | SETEETSRHLMEMFEKSMLTGDEEHYKRMADPNVRMHINGQEYVGWEDFTRILREIRTEEVRFKVKRYDLVGEYLHVDLRIERDTHVNGVKVEFRTEAELIVVKVDGRWIVKEVRIK | 1.27
40 | SETEETVRRFFELLMKLEHTGNEEAIEKLFDPNMKWHQGEKERHGRETFSRMVSELRIHDFRLHRIEIYGDKAIIEGSVDGNFNGQRSEVEVTIHLEKIDGRWFIHSIHLS | 1.15
41 | SETEEWQHQILEILERIQKTGDPHEFMHNADPHVRLHVNGRDFHGMELFKEMFEKFGAKVSHLRDVDIQGDKIHVDGELEFNGVTHKSHVDARKVDGRWVLTRYTIK | 0.415
42 | SETEHYSQKLLDLIVKAMRTGDEEMFERLLDPNTRELVDGQELHGREEWHHLWHRIDHLRIDHSEISHVNPIGEFIVVHMRVRMTLHINGKIHHYETEVIIIILKIDGRWLMHEVRFH | 0.647
43 | SETEKELHEFFRLWIQLFLTGDFDELKHYIDPNVRSVINGRQLIGMEEVWRWREEARIKDIEIKDVRVQGDKIEADGVLEGTINGVDRRTDTHIQLNVVNGVAKHTFIRIR | 1.45
44 | SETEKFAEIALKLWIRRLRTGDEHEESMLADPNTLYVQGDKNIHGMERISRFFKEILTRHGITFNHFHLEHIEVQGNKVRLDLRVDGEFDGQRMNQEVELISIKVDGRWFLESVIIR | 1.62
45 | SETEKHLQDIADILVHAEITGDEETLNKMLDPDVRMHNEVNGREYHIHGREEVLKHWREWVTRFKGARIDIEDVHIINGVVHVNMKIIFNGRRIESRLDVEVVNGRVRTIRIHER | 2.15
46 | SETEKLLHEILEKLIRNEATGNFENIEQLLDPHYRVEIGEFEMHGMEEIIRWLNWVKREMRIKRRHIRTMTWQGDKALVDTELHIQVNGQHIRLDEYIVVLIINGRVKEVRVEHR | 0.943
47 | SETERKVREVLRLLDESLTTGDEREFRHLFDPNARLEIGDWEIHGMEIIDRLLHEIRIEVNDSKVRRIRIQGDKVEVHTRVDLKFNVDGVTERHDRDQHLLILKVNGRWLIKNFYIE | 1.1
48 | SETERYNEELLTKWFHAEHTGNFEMLQRLIDPHARIDINGVEHIGWRQFTKSLEDFGIDHIHHLKIDHFRVFNGRLFIDVTTDGTINGQRHKTKVLIRIVLYNGVIHEMSIEWV | 1.33
49 | SETHEILERIMRMILEILYTGDEESMSRLLDPHVKLVVVIGDKELHLHGRENALRWLVHWRIEDYRLRRYTVQGDKAHVDTESTGNYNGQREESRFSLHVKVINGKIHNMKFEFE | 2.56
50 | SETHKHWEEVARIIIKALETGDFRLFHKLLDPNARLHHDIGDKRVNNVGREEVVRTLKMWIDRFPNVTIELKDMRVIDGVVHHDESLNINGVTVRVHIEIIVFDGKLEEMRIEYR | 1.23
